Experimental data as given in patent US20210032299A1 (Eli Lilly, published 2021).
Starred links: 1 amine or outer side, 2 acyl side, 3 side chain; linkers in the order of their positions; H or OH if unused. Non-standard residues stand in square brackets, D forms with d. Groups on a side chain read outwards from the residue. No end group written: not given here. *: point of attachment. C20 diacid = O=C(O)CCCCCCCCCCCCCCCCCCC(=O)*; γGlu = O=C(O)[C@H](CCC(=O)[*:2])N[*:1]; αMeF = C[C@](N)(Cc1ccccc1)C(=O)O; 4Pal = N[C@@H](Cc1ccncc1)C(=O)O; αMeL = CC(C)C[C@](C)(N)C(=O)O; AEEA = NCCOCCOCC(=O)O; Aib = CC(C)(N)C(=O)O

T1: human glucose-dependent insulinotropic peptide receptor (human, UniProt P48546 22-466)
T1 sequence (looked up): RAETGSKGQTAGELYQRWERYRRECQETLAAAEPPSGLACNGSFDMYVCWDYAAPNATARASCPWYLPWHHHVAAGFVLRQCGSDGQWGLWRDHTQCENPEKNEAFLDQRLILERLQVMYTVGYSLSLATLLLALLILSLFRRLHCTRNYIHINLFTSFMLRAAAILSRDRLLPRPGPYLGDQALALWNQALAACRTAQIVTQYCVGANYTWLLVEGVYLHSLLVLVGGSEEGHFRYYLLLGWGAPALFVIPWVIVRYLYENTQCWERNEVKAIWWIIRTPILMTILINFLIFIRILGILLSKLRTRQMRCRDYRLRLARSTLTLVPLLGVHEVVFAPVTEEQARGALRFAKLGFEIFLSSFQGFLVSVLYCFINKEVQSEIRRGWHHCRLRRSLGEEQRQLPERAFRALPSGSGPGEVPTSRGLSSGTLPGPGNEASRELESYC


Assays:
Assay in all cases: cell-based or functional assay
human GLP-1 receptor = human GLP-1 receptor (human, UniProt P43220 24-463)
human glucagon receptor = human glucagon receptor (human, UniProt P47871 26-477)
Sequence of human glucagon receptor (P47871 26-477): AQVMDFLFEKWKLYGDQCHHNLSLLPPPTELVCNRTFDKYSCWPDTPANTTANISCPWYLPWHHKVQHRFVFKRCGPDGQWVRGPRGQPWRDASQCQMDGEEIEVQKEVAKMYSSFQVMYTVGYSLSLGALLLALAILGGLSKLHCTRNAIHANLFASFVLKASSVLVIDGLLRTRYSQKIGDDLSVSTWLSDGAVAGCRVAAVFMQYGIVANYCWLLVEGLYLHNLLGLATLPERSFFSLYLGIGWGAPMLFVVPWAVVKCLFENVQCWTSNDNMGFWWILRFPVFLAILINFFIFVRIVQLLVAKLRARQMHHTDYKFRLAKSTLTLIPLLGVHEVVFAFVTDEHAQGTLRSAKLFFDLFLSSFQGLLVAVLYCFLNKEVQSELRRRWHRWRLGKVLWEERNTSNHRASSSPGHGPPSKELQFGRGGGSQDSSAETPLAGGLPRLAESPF

[1] = molecular target: T1, human glucose-dependent insulinotropic …

Binder	hGLP1R cAMP Rel EC50 (human GLP-1 receptor)	hGcgR cAMP Rel EC50 (human glucagon receptor)	hGIPR cAMP Rel EC50 [1]
Y[Aib]EGTFISDYSI[αMeL]LDKK([AEEA-AEEA-γGlu-C20 diacid])HQ[Aib]DFVE[4Pal]LLEGGPSSGAPPPS-NH2 (N-terminus assumed; SMILES CC[C@H](C)[C@H](NC(=O)[C@H](Cc1ccccc1)NC(=O)[C@@H](NC(=O)CNC(=O)[C@H](CCC(=O)O)NC(=O)C(C)(C)NC(=O)[C@@H](N)Cc1ccc(O)cc1)[C@@H](C)O)C(=O)N[C@@H](CO)C(=O)N[C@@H](CC(=O)O)C(=O)N[C@@H](Cc1ccc(O)cc1)C(=O)N[C@@H](CO)C(=O)N[C@H](C(=O)N[C@@](C)(CC(C)C)C(=O)N[C@@H](CC(C)C)C(=O)N[C@@H](CC(=O)O)C(=O)N[C@@H](CCCCN)C(=O)N[C@@H](CCCCNC(=O)COCCOCCNC(=O)COCCOCCNC(=O)CC[C@H](NC(=O)CCCCCCCCCCCCCCCCCCC(=O)O)C(=O)O)C(=O)N[C@@H](Cc1c[nH]cn1)C(=O)N[C@@H](CCC(N)=O)C(=O)NC(C)(C)C(=O)N[C@@H](CC(=O)O)C(=O)N[C@@H](Cc1ccccc1)C(=O)N[C@H](C(=O)N[C@@H](CCC(=O)O)C(=O)N[C@@H](Cc1ccncc1)C(=O)N[C@@H](CC(C)C)C(=O)N[C@@H](CC(C)C)C(=O)N[C@@H](CCC(=O)O)C(=O)NCC(=O)NCC(=O)N1CCC[C@H]1C(=O)N[C@@H](CO)C(=O)N[C@@H](CO)C(=O)NCC(=O)N[C@@H](C)C(=O)N1CCC[C@H]1C(=O)N1CCC[C@H]1C(=O)N1CCC[C@H]1C(=O)N[C@@H](CO)C(N)=O)C(C)C)[C@@H](C)CC) [Example 47]	> 5000 nM	757 nM	0.0234 nM
Y[Aib]EGTFISDYSI[αMeL]LDKK([AEEA-AEEA-γGlu-C20 diacid])HQ[Aib]DFVE[4Pal]LLETGPSSGAPPPS-NH2 (N-terminus assumed; SMILES CC[C@H](C)[C@H](NC(=O)[C@H](Cc1ccccc1)NC(=O)[C@@H](NC(=O)CNC(=O)[C@H](CCC(=O)O)NC(=O)C(C)(C)NC(=O)[C@@H](N)Cc1ccc(O)cc1)[C@@H](C)O)C(=O)N[C@@H](CO)C(=O)N[C@@H](CC(=O)O)C(=O)N[C@@H](Cc1ccc(O)cc1)C(=O)N[C@@H](CO)C(=O)N[C@H](C(=O)N[C@@](C)(CC(C)C)C(=O)N[C@@H](CC(C)C)C(=O)N[C@@H](CC(=O)O)C(=O)N[C@@H](CCCCN)C(=O)N[C@@H](CCCCNC(=O)COCCOCCNC(=O)COCCOCCNC(=O)CC[C@H](NC(=O)CCCCCCCCCCCCCCCCCCC(=O)O)C(=O)O)C(=O)N[C@@H](Cc1c[nH]cn1)C(=O)N[C@@H](CCC(N)=O)C(=O)NC(C)(C)C(=O)N[C@@H](CC(=O)O)C(=O)N[C@@H](Cc1ccccc1)C(=O)N[C@H](C(=O)N[C@@H](CCC(=O)O)C(=O)N[C@@H](Cc1ccncc1)C(=O)N[C@@H](CC(C)C)C(=O)N[C@@H](CC(C)C)C(=O)N[C@@H](CCC(=O)O)C(=O)N[C@H](C(=O)NCC(=O)N1CCC[C@H]1C(=O)N[C@@H](CO)C(=O)N[C@@H](CO)C(=O)NCC(=O)N[C@@H](C)C(=O)N1CCC[C@H]1C(=O)N1CCC[C@H]1C(=O)N1CCC[C@H]1C(=O)N[C@@H](CO)C(N)=O)[C@@H](C)O)C(C)C)[C@@H](C)CC) [Example 45]	> 5000 nM	1690 nM	0.049 nM
Y[Aib]EGT[αMeF]ISDYSIALDKK([AEEA-AEEA-γGlu-C20 diacid])HQ[Aib]DFVE[4Pal]LLEAGPSSGAPPPS-NH2 (N-terminus assumed; SMILES CC[C@H](C)[C@H](NC(=O)[C@H](CO)NC(=O)[C@H](Cc1ccc(O)cc1)NC(=O)[C@H](CC(=O)O)NC(=O)[C@H](CO)NC(=O)[C@@H](NC(=O)[C@](C)(Cc1ccccc1)NC(=O)[C@@H](NC(=O)CNC(=O)[C@H](CCC(=O)O)NC(=O)C(C)(C)NC(=O)[C@@H](N)Cc1ccc(O)cc1)[C@@H](C)O)[C@@H](C)CC)C(=O)N[C@@H](C)C(=O)N[C@@H](CC(C)C)C(=O)N[C@@H](CC(=O)O)C(=O)N[C@@H](CCCCN)C(=O)N[C@@H](CCCCNC(=O)COCCOCCNC(=O)COCCOCCNC(=O)CC[C@H](NC(=O)CCCCCCCCCCCCCCCCCCC(=O)O)C(=O)O)C(=O)N[C@@H](Cc1c[nH]cn1)C(=O)N[C@@H](CCC(N)=O)C(=O)NC(C)(C)C(=O)N[C@@H](CC(=O)O)C(=O)N[C@@H](Cc1ccccc1)C(=O)N[C@H](C(=O)N[C@@H](CCC(=O)O)C(=O)N[C@@H](Cc1ccncc1)C(=O)N[C@@H](CC(C)C)C(=O)N[C@@H](CC(C)C)C(=O)N[C@@H](CCC(=O)O)C(=O)N[C@@H](C)C(=O)NCC(=O)N1CCC[C@H]1C(=O)N[C@@H](CO)C(=O)N[C@@H](CO)C(=O)NCC(=O)N[C@@H](C)C(=O)N1CCC[C@H]1C(=O)N1CCC[C@H]1C(=O)N1CCC[C@H]1C(=O)N[C@@H](CO)C(N)=O)C(C)C) [Example 43]	1020 nM	> 5000 nM	0.0154 nM
Y[Aib]EGT[αMeF]ISDYSIALDKK([AEEA-AEEA-γGlu-C20 diacid])HQ[Aib]DFVE[4Pal]LLEQGPSSGAPPPS-NH2 (N-terminus assumed; SMILES CC[C@H](C)[C@H](NC(=O)[C@H](CO)NC(=O)[C@H](Cc1ccc(O)cc1)NC(=O)[C@H](CC(=O)O)NC(=O)[C@H](CO)NC(=O)[C@@H](NC(=O)[C@](C)(Cc1ccccc1)NC(=O)[C@@H](NC(=O)CNC(=O)[C@H](CCC(=O)O)NC(=O)C(C)(C)NC(=O)[C@@H](N)Cc1ccc(O)cc1)[C@@H](C)O)[C@@H](C)CC)C(=O)N[C@@H](C)C(=O)N[C@@H](CC(C)C)C(=O)N[C@@H](CC(=O)O)C(=O)N[C@@H](CCCCN)C(=O)N[C@@H](CCCCNC(=O)COCCOCCNC(=O)COCCOCCNC(=O)CC[C@H](NC(=O)CCCCCCCCCCCCCCCCCCC(=O)O)C(=O)O)C(=O)N[C@@H](Cc1c[nH]cn1)C(=O)N[C@@H](CCC(N)=O)C(=O)NC(C)(C)C(=O)N[C@@H](CC(=O)O)C(=O)N[C@@H](Cc1ccccc1)C(=O)N[C@H](C(=O)N[C@@H](CCC(=O)O)C(=O)N[C@@H](Cc1ccncc1)C(=O)N[C@@H](CC(C)C)C(=O)N[C@@H](CC(C)C)C(=O)N[C@@H](CCC(=O)O)C(=O)N[C@@H](CCC(N)=O)C(=O)NCC(=O)N1CCC[C@H]1C(=O)N[C@@H](CO)C(=O)N[C@@H](CO)C(=O)NCC(=O)N[C@@H](C)C(=O)N1CCC[C@H]1C(=O)N1CCC[C@H]1C(=O)N1CCC[C@H]1C(=O)N[C@@H](CO)C(N)=O)C(C)C) [Example 42]	815 nM	> 5000 nM	0.0091 nM
Y[Aib]EGTFISDYSI[αMeL]LDKK([AEEA-AEEA-γGlu-C20 diacid])HQ[Aib]DFVE[4Pal]LLEQGPSSGAPPPS-NH2 (N-terminus assumed; SMILES CC[C@H](C)[C@H](NC(=O)[C@H](Cc1ccccc1)NC(=O)[C@@H](NC(=O)CNC(=O)[C@H](CCC(=O)O)NC(=O)C(C)(C)NC(=O)[C@@H](N)Cc1ccc(O)cc1)[C@@H](C)O)C(=O)N[C@@H](CO)C(=O)N[C@@H](CC(=O)O)C(=O)N[C@@H](Cc1ccc(O)cc1)C(=O)N[C@@H](CO)C(=O)N[C@H](C(=O)N[C@@](C)(CC(C)C)C(=O)N[C@@H](CC(C)C)C(=O)N[C@@H](CC(=O)O)C(=O)N[C@@H](CCCCN)C(=O)N[C@@H](CCCCNC(=O)COCCOCCNC(=O)COCCOCCNC(=O)CC[C@H](NC(=O)CCCCCCCCCCCCCCCCCCC(=O)O)C(=O)O)C(=O)N[C@@H](Cc1c[nH]cn1)C(=O)N[C@@H](CCC(N)=O)C(=O)NC(C)(C)C(=O)N[C@@H](CC(=O)O)C(=O)N[C@@H](Cc1ccccc1)C(=O)N[C@H](C(=O)N[C@@H](CCC(=O)O)C(=O)N[C@@H](Cc1ccncc1)C(=O)N[C@@H](CC(C)C)C(=O)N[C@@H](CC(C)C)C(=O)N[C@@H](CCC(=O)O)C(=O)N[C@@H](CCC(N)=O)C(=O)NCC(=O)N1CCC[C@H]1C(=O)N[C@@H](CO)C(=O)N[C@@H](CO)C(=O)NCC(=O)N[C@@H](C)C(=O)N1CCC[C@H]1C(=O)N1CCC[C@H]1C(=O)N1CCC[C@H]1C(=O)N[C@@H](CO)C(N)=O)C(C)C)[C@@H](C)CC) [Example 46]	> 5000 nM	863 nM	0.0294 nM
Y[Aib]EGT[αMeF]ISDYSIALDKK([AEEA-AEEA-γGlu-C20 diacid])HQ[Aib]DFVE[4Pal]LLEGGPSSGAPPPS-NH2 (N-terminus assumed; SMILES CC[C@H](C)[C@H](NC(=O)[C@H](CO)NC(=O)[C@H](Cc1ccc(O)cc1)NC(=O)[C@H](CC(=O)O)NC(=O)[C@H](CO)NC(=O)[C@@H](NC(=O)[C@](C)(Cc1ccccc1)NC(=O)[C@@H](NC(=O)CNC(=O)[C@H](CCC(=O)O)NC(=O)C(C)(C)NC(=O)[C@@H](N)Cc1ccc(O)cc1)[C@@H](C)O)[C@@H](C)CC)C(=O)N[C@@H](C)C(=O)N[C@@H](CC(C)C)C(=O)N[C@@H](CC(=O)O)C(=O)N[C@@H](CCCCN)C(=O)N[C@@H](CCCCNC(=O)COCCOCCNC(=O)COCCOCCNC(=O)CC[C@H](NC(=O)CCCCCCCCCCCCCCCCCCC(=O)O)C(=O)O)C(=O)N[C@@H](Cc1c[nH]cn1)C(=O)N[C@@H](CCC(N)=O)C(=O)NC(C)(C)C(=O)N[C@@H](CC(=O)O)C(=O)N[C@@H](Cc1ccccc1)C(=O)N[C@H](C(=O)N[C@@H](CCC(=O)O)C(=O)N[C@@H](Cc1ccncc1)C(=O)N[C@@H](CC(C)C)C(=O)N[C@@H](CC(C)C)C(=O)N[C@@H](CCC(=O)O)C(=O)NCC(=O)NCC(=O)N1CCC[C@H]1C(=O)N[C@@H](CO)C(=O)N[C@@H](CO)C(=O)NCC(=O)N[C@@H](C)C(=O)N1CCC[C@H]1C(=O)N1CCC[C@H]1C(=O)N1CCC[C@H]1C(=O)N[C@@H](CO)C(N)=O)C(C)C) [Example 44]	1180 nM	> 5000 nM	0.0084 nM
